Experiment: soluble on expression in E. coli; label from the status in PepcDB or PDB records

Row | Sequence | soluble on expression in E. coli
1 | RPLTGLVMTGGGARAAYQVGALSAIMAILDPKARPGYPNPFPIICGTSAGAVNAAALACRADRPHLAVRRMRRLWASLETGMVYRADAPGLIRTGVRWLGLLSLGWMYAGLTRKRPQSLLDSSPLADLLGRVMDFDRMRHNLARGKLSALAITASGYTSGEHLTFYQSDRPIDPWHRFLRRAVPSAIGIDHIMASSAIPFVFPARPVRVHGQVEWCGDGSMRQLAPISPAIHLGATRVLVIGTGFHDDTHPEKREEDPPYPSLAQVGGHALSSIFLDGLSMDVERLERTNFLLSRGGQEAEPEFALRRVDVLALTPSQSLDQLALEHLDDMPSEARTLFRV | not soluble
2 | RPNKGAQQEDERIIQAFDKAIQYMSKRKIGALITIERNTGLDEYIETGIDLDADITGELLINIFIPNTPLHDGAVIIKNEKIAVASAYLPLSESNLIPKEFGTRHRAAVGISEVSDAITIVVSEETGDVSLTLNNELIPGL | not soluble
3 | RPQISIRVDVPKEEKGIEAMICLDISNSMLCEDVKPNRLSFAKQVLGKLFDGLQNDKVGLVVFAGNAYTQIPITTDLSAAKQFLADISPNMVTAQGTAIGAAIELASKSFSDNKEIGKTIIVLTDGENHEGNAIEAAQQAHEAGIRVNVIGLGTALGAPIPIEEGYLKDETGNPVVTKFDEKMCRDIASAGEGTFFSGQSASALVRAIESQLDKLPKAVLSSSSSSGYREV | not soluble
4 | RQACYQEIIDTILSKKPHAFESLVVLLLQKMGYGGEIKQSGLVTPYSNDGGIDGIIKEDVLGFGRIHIQAKRYALENSVQRQEIQSFVGALAVAQSNKGVFITTSSFSRGAIQYAVGLNGSTTLILIDGQKLAEYIYEYGVGLQVEHTVEIKKLDSEFWDSMENEAGVPDL | not soluble
5 | RQANELPGAPSQEEAVIAFGKFKLNLGTREMFREDEPMPLTSGEFAVLKALVSHPREPLSRDKLMNLARGREYSAMERSIDVQISRLRRMVEEDPAHPRYIQTVWGLGYVFVPDGSKA | soluble
6 | RQFQILLQQINMTDDTFMTYFEHGEIKKLTIHKASKSWHFHFQFKSLLPFQIYDTLTTRLTQSFAHIAKVTSSIEVQDAEVSESIVQDYWSRCIEELQGISPPIISLLNQQKPKLKGNKLIVKTKTDTEAAALKNKYSSMIQA | not soluble
7 | RRAYGKNSKWVLINYNTGQPYEQTKVTPDGLIDYDAVLAANAAASNGSEAIFALGSNSHKWFGLLSSFKKKLNSSLTLTAGYDGRYYRGDHYDKITDLLGGSYYIEDPKTKLAYHAEGQQLKVGDIVNRDYTGEIMWHGLFAQMEHSSEWIDAFVSGSINYELYRNHNYGGSKSTGYLPGVSPWKSFLPWSGKAGLSYKFAQGHNVFANGGFFTRAPLFGNIYAAGAIIPNDKANMEKVLTGEVGYGFTNHKNFEFNINGYYTKWMDRVTSKRIGNEYVYLNGVDAVHCGVEAEVSYRPIRQIDLRGMFSLGDWTWQNNVSYTSYDEAGNETGQDITYIKGLHVGDAAQMTAAVSADIELFKGFHVIGKYNFLGKNYAGFNPATRNAQQYEADGKEIVESWKLPDVGLFDLSASYNFKLGSLSTTFYFNMDNVADKRYVSDADDNIIGKKHDEASALVWYGFGRTWSTGIRVNF | not soluble
8 | RSFDTKQEHGISPKPTYSRIKANYFSFGYFVGRVLPYQLFDLSRIPAFKQPAPSKIGQGSVQNIVLIMGESESAAHLKLFGYGRETSPFLTRLSQADFKPIVKQS | not soluble
9 | RSLKNEELYHQSYDCVCVMFASIPDFKEFYTESDVNKEGLECLRLLNEIIADFDDLLSKPKFSGVEKIKTIGSTYMAATGLSAIPSQEHAQEPERQYMHIGTMVEFAYALVGKLDAINKHSFNDFKLRVGINHGPVIAGVIGAQKPQYDIWGNTVNVASRMDSTGVLDKIQVTEETSLILQTLGYTCTCRGIINVKGKGDLKTYFVNTEMSR | soluble
10 | RSTDTFNYATYHTLEEIYDFLDLLVAENPHLVSKIQIGNTYEGRPIYVLKFSTGGSKRPAIWIDTGIHSREWVTQASGVWFAKKITQDYGQDAAFTAILDTLDIFLEIVTNPDGFAFTHSTNRMWRKTRSHTAGSLCIGVDPNRNWDAGFGLSGASSNPCSETYHGKFANSEVEVKSIVDFVKDHGNIKAFISIHSYSQLLMYPYGYKTEPVPDQDELDQLSKAAVTALASLYGTKFNYGSIIKAIYQASGSTIDWTYSQGIKYSFTFELRDTGRYGFLLPASQIIPTAKETWLALLTIMEHTLNHP | soluble
11 | RTDTIMVLNVGNKDKKIKMVSFMRDTLVNIKGVSADNYSYDNKLNSAFNIGEQDNNQGAELMRQTLKRNFDIDIKYYVMVDFQTFAEAIDTLFPNGVEINAKFATVGGEAVDSVEVPDDLNMKDGVVPNQTISVGKQKMDGRTLLNYARFRKDDEGDFGRTKRQQQVMSAIMSQIKD | not soluble
12 | RTYGDGTKPQTDRVVGGLVVEYDITENIMVSAHYDRTKDEGSVDSGAYIVDGKPVRGDKYIWDAQWSKIDNDVENYGIDINAQVTDNVNVKAGYNRQDFKRFDVESYPKFDNYDKDGVIRHKGNERTDNWVFDTAYLDVTTNFSLLGTENTFLVGANYLDYKYDRFMASHAGEDVAAGTTVTRPGTVRSKKYPRREHDTWGIYAQNMMTINDYWQVLAGARYDEKREDSLTENQVSPKLGVIFHPTSNGSIYVQYSESFMPQGEVSNGSRIYINDGEKLDAERGISYEIGTKWELFDQRLFVSGAVFDITLENISLDVESGKDASNQLLHKKTQGGEQVHKGAELMAQGFVTPELSLTASAMYLDAELKKAERFEGNRPADVPEFSASLWSSYRVQDNTNLNLGLIYEGDRYGDAANTFKKDGYARIDMGVSYKHKYDENLDIIARFNVENLFDTDYLAGGGSTNGNQEGASGVVVGEGRNYMATIQFKY | not soluble
13 | RVAYIQIIEPDNLIKQGDLRSIRVKSIPSARGIISDRNGEPLAVSVPVEAVWADPATIFKENALSQKQNWYALADVLGVDRQGLIDKIKRNEKRRFIYLQRQVSPAMANYIRELKLPGIGLKSESRRYYPAGEVSAHLVGVTGIDGHGLEGVERSYDEWLTGEEGKKTIRKDRYGRVVENIAWQDKQEGKSLQLTIDQRLQAIAYRAIKQAVADHRATSGSVVMLDVKTGAVLAMVNAPSYNPNNRTDWQSYKMRNRVITDSMEPGSTIKPFVILAALENGVADKDTIVDTGNGVLRLGGSRVRDVSWVGKASLSMILKKSSNIGVTKLAMQMPVEALLGLYSSVGFGELSGLNLVGEVTGIFPTRTRWSPIERATIA | not soluble
14 | RVEVGGSGDAAAVLGLGAVLQGQGQGTSPSPSGLRPQPEAALPPLERLPKPVLVQVASRCRRNDSRSPTHRKITRGAVGLFHPQLYLSGGNCIECGNEMMSRGKFERLAGTATAKWHVSIKVLPSGVTLGKWLQQHGLPILQGEPRQWRRPRCPCATSCAARCRRASNRRK | not soluble
15 | RYIEKALKRPGNILIGTLPVGLDFPTRIVAEIVDAPSLTIEEIMRKAKYYLREGADIIDIGMESGKTNVEFLESVLPEIKEKINAPLSLDTLNPKEIEAGEKEVDLILSVDFGTVEEILPSKPVVLIPTNMKEGKFIEDPIGRAKALEKLKEKALNLGYKGLILDPILEHYPNFSRSLVAFYLYRMRNPQDILLAGVGNITEMMDADSVGLNALLASIAGELKISLLLTTEVSPKATGSVRELKRGIDMVLLGGVKDVGINLLILKEKRRKEQKIEFAKTIIRAKKKPVKLEEVYFKIYVVGTELAVTAYKGTNPVMTIIGKEPNEIIDTILEHFSISPRHAFYLGRELEKAYTGLKIRRSYIQEEELFGDFYFEK | not soluble
16 | RYWQLEVAPRRRADPPEALLELLDRSVTARMQGGPVGSMLSGGLDSGTVSMLASRRSEGPLPVISMKFDDHPEIDESEWIAKIHAAGRFRPVWIDGRDAHGGDVAELLAEQGGPFFAPNLATSRWLYRRAAEAGVEILLDGHGGDEVISFGVARLTELASEAQWRTLWQSTAAVSDLFGGSRREFFLNSMAQGAQSRWLRAMARRLNVGAKRDPRAWRQALHPALVARTGLVQRVQEAAGARKRGATDDIRQHVATLTAPRYPTTLEVLDRAATLCGIEPRYPFLERRLIEHCVAQPAAAKFHDGMTRALLRDAVRGLLPDEVRLRTSKTNFTPNVRARMLTSWGDNLNRIAGCNPGRIGDYVDLAVIREGIQRLRAGEPDQPALLQTMRAVVLDEWLR | not soluble
